From patent publication US20260193375A1 (NORMUNITY, published 2026)

Tests used:
hLY6K-his = target: T1, hLY6K-his (human, UniProt Q17RY6 18-138, limits assumed); assay: SPR (Carterra LSA), mAb captured on anti-human IgG-Fc, antigen as analyte
T1 construct: not shown: his tag
T1 sequence: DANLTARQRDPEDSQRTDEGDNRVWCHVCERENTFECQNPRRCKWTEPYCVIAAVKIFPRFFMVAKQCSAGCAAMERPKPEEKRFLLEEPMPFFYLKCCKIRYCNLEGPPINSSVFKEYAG

rLY6K-mFc = target: T2, rLY6K-mFc (rat); assay: as above
T2 chain: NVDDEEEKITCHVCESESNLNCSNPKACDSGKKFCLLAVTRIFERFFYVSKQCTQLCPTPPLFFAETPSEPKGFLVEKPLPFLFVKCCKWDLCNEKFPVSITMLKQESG

cyLY6K-mFc = cyLY6K-mFc (cynomolgus monkey); assay: as above
hLY6K-mFc = target: T3, hLY6K-mFc (human, UniProt Q17RY6 18-138); assay: as above
T3 construct: not shown: mFc
T3 sequence: T1 sequence

Ly6D = target: T4, Ly6D; assay: ELISA, antigen coated on the plate, antibody as human IgG1, anti-human F(ab)2 HRPO
T4 chain: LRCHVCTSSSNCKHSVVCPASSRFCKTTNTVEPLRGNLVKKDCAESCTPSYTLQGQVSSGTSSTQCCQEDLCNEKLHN

Ly6H = target: T5, Ly6H; assay: as above
T5 chain: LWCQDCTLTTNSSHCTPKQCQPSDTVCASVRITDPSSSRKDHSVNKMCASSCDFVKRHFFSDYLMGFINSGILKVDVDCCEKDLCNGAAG

human LY6E (R&D Systems) [1] = target: T6, human LY6E (R&D Systems) (human, UniProt Q16553 21-101, limits assumed); assay: as above
T6 construct: also called hLY6E
T6 sequence (looked up): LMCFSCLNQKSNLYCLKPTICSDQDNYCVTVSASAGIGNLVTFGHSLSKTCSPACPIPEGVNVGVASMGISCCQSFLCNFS

[2] = target: T7, recombinant human LY6K (Wuxi) (human, UniProt Q17RY6 18-138); assay: ELISA, LY6K coated at 2 ug/mL, HRP-labelled mAb titrated
T7 construct: Limits of the construct not clearly stated; also called Human LY6K (Wuxi LY^KGLY138(1-38TR)_8His)
T7 sequence: T1 sequence

[3] = target: T7, recombinant human LY6K (Wuxi); assay: capture ELISA (MSD): antibody coated as capture at 2 µg/mL, recombinant human LY6K titrated, sulfo-tagged polyclonal anti-hLY6K (AF6648) for detection; EC50 is the LY6K concentration
[4] = target: T8, cynomolgus monkey LY6K (R&D Systems) (cynomolgus monkey); assay: ELISA, coated antigen, IgG1 at 10 ug/ml
T8 construct: also called cyLY6K

human LY6E (R&D Systems) [5] = target: T6, human LY6E (R&D Systems); assay: ELISA, coated antigen, IgG1 at 10 ug/ml
rat LY6K (R&D Systems) = target: T9, rat LY6K (R&D Systems) (rat); assay: ELISA, coated antigen, IgG1 at 10 ug/ml
T9 construct: also called rLY6K

Human LY6K (R&D Systems) = target: T10, Human LY6K (R&D Systems) (human, UniProt Q17RY6 18-138, limits assumed); assay: ELISA, coated antigen, IgG1 at 10 ug/ml
T10 construct: Bought from R&D Systems, coated on ELISA plates; also called hLY6K
T10 sequence: T1 sequence

Kd (hLY6K-his): 2.06 nM | Kd (rLY6K-mFc): 240 nM | Kd (cyLY6K-mFc): 0.103 nM | Kd (hLY6K-mFc): 0.0444 nM | binding result (Ly6D): no binding (tested: 10 µg/ml) | binding result (Ly6H): no binding (tested: 10 µg/ml) | binding result (human LY6E (R&D Systems) [1]): no binding (tested: 10 µg/ml) | EC50 [2]: 4.59 nM | EC50 [3]: 0.0958 µg/mL | % of maximum of commercial anti-LY6K mAb on human LY6K [4]: 95.2% | % of maximum of commercial anti-LY6K mAb on human LY6K (human LY6E (R&D Systems) [5]): 2.1% | % of maximum of commercial anti-LY6K mAb on human LY6K (rat LY6K (R&D Systems)): -0.5% | % of maximum of commercial anti-LY6K mAb on human LY6K (Human LY6K (R&D Systems)): 87.2%
B1: anti-LY6K antibody 3082 (antibody, V domains shown)
VH: EVQLVESGGGLVKPGGSLRLSCAASGFTFSSSSMNWVRQAPGKGLEWVSSISRSSYYIYYADSVEGRFTISRDNAKNSLYLQMNSLRAEDTAVYYCAKIGSSSEGVEDYYYYYYMDVWGKGTTVTVSS
VL: DIQMTQSPSSLSASVGDRVTITCRASQNINSYLNWYQQKPGKAPKLLIYAASSLQSGVPSRFSGSGSGTDFTLTISSLQPEDFATYYCHQSYSTPLTFGGGTKVEIK
